The experiment deals with biotinylated L-form of SARS-CoV-2 HR1 (SARS-CoV-2).

B1: L-form of EK1 (peptide)
peptide: SLDQINVTFLDLEYEMKKLEEAIKKLEESYIDLKEL
modifications: not checked
The term Kd denotes the equilibrium constant for the complex coming apart. As for B1, the Kd is 23 nM.

For the origin of these results see patent US20220119464A1.
